Assay results taken from PMC9177810, “Allosteric interactions prime androgen receptor dimerization and activation”.

What was measured:
[1] = biological target: Recombinant mouse AR lacking the N-terminus (mouse); assay: cryo-EM structure; Grafix cross-linked complex of ΔNTD AR, DHT, ARE35 DNA and ERG (fraction 11); three states (Entrenched, Splayed, Divorced) at 11.4, 9.1 and 9.4 Å; LBD and DBD X-ray coordinates docked
[2] = biological target: AR-AR27Linker (mouse) (UniProt P19091); assay: fluorescence polarization; details: 150 mM NaCl, 40 mM Tris pH 8.0, 1 mM TCEP, 20 uM DHT, 10% glycerol, 0.01% NP40, on ice; FP 100 nM DNA, 0-4 uM protein; EMSA 50 nM DNA, 250 nM protein
[3] = biological target: AR-AR18Linker (mouse) (UniProt P19091); assay: fluorescence polarization; details: 150 mM NaCl, 40 mM Tris pH 8.0, 1 mM TCEP, 20 uM DHT, 10% glycerol, 0.01% NP40, on ice; FP 100 nM DNA, 0-4 uM protein; EMSA 50 nM DNA, 250 nM protein
[4] = biological target: AR deltaNTD WT;ERG full-length (mouse;human, UniProt P19091;P11308-1 530-899;1-462, |); assay: cryo-EM (9.1-11.4 A); DHT; GraFix cross-linked; AR dimer; EMD-25132, EMD-25133, EMD-25134; 150 mM NaCl, 40 mM Tris pH 8.0, 1 mM TCEP, 20 uM DHT, 10% glycerol, 0.01% NP40, on ice; FP 100 nM DNA, 0-4 uM protein; EMSA 50 nM DNA, 250 nM protein; details: protein: recombinant;recombinant, tags: Smt3 fusion, removed by Ulp1;Smt3 fusion, chain copies: 2;1, label: unlabeled, blunt
[5] = biological target: AR deltaNTD WT (mouse, UniProt P19091 530-899); assay: fluorescence polarization; DHT; 150 mM NaCl, 40 mM Tris pH 8.0, 1 mM TCEP, 20 uM DHT, 10% glycerol, 0.01% NP40, on ice; FP 100 nM DNA, 0-4 uM protein; EMSA 50 nM DNA, 250 nM protein; details: protein: recombinant; tags: Smt3 fusion, removed by Ulp1; chain copies: 2; label: 5' fluorescein (FP); unlabeled (EMSA); blunt
AR deltaNTD WT, sequence (P19091 530-899, stated change not applied): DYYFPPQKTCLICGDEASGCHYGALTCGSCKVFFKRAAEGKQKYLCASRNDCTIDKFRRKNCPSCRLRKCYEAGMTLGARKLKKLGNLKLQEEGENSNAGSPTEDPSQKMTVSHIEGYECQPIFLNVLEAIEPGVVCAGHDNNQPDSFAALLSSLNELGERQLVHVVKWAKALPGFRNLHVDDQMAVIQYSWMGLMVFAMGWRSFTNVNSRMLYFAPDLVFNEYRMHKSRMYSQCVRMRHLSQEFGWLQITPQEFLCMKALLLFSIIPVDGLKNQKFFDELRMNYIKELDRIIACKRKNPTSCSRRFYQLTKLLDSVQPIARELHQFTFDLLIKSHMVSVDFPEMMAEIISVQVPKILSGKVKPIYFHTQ

AR-AR18Linker (mouse), sequence (P19091 whole entry, the tested form may be a part): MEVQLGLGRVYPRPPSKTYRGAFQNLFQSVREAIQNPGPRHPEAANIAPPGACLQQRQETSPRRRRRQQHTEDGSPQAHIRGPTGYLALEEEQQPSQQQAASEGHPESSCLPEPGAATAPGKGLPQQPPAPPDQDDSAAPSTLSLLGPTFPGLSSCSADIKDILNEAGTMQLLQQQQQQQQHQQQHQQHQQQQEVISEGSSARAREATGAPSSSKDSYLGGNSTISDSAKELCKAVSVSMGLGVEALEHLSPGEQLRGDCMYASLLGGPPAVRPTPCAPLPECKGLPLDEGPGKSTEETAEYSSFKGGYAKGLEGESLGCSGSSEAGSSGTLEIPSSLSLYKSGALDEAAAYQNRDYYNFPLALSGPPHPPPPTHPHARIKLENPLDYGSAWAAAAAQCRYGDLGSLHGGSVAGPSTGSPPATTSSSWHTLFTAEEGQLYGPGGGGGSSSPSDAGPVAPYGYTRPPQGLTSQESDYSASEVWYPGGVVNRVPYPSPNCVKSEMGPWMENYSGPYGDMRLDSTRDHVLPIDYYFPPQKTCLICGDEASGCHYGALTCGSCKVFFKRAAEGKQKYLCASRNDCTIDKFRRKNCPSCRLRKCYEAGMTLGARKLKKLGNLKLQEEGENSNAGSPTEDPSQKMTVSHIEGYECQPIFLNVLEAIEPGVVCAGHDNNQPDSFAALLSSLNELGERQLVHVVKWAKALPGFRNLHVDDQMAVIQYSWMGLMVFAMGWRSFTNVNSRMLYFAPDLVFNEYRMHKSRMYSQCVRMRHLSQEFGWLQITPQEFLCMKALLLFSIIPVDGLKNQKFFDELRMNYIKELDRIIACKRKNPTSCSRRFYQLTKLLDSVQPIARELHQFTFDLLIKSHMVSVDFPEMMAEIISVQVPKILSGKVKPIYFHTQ
AR-AR27Linker (mouse), sequence (P19091 whole entry): as the sequence (P19091 whole entry, the tested form may be a part) above
AR deltaNTD WT;ERG full-length, sequence (P19091 530-899, stated change not applied, chain 1 of 2): as the sequence (P19091 530-899, stated change not applied) above
AR deltaNTD WT;ERG full-length, sequence (P11308 other isoform, or with tags, fused parts or gaps | | mutant, chain 2 of 2): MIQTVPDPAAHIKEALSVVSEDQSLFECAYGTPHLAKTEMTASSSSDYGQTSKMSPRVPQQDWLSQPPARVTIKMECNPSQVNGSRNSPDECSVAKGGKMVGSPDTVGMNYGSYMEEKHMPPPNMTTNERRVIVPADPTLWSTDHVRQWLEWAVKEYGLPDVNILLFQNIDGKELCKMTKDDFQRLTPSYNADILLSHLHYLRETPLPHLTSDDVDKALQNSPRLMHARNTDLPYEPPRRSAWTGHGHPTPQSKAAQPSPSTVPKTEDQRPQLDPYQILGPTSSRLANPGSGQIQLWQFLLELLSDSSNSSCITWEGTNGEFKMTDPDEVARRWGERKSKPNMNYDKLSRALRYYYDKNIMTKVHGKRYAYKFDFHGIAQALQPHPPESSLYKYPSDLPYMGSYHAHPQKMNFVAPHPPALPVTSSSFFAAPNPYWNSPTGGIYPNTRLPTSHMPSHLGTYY

For “Recombinant mouse AR lacking the N-terminus (domain or fragment)”, the stoichiometry N [1] was 2.

With “TACCTAGCGTGGCCAGAACATCATGTTCTCCGGTGCGATCCAG (double strand) [ARE/Scr (ARE43)]” the binding signal (fold weaker than WT AR) [2] was 3 and the binding signal (fold tighter than WT AR) [3] was 5.

B1: ARE35 (dsDNA)
DNA 1: TAGCGTGGCCAGAACATCATGTTCTCCGGTGCGAT
DNA 2: ATCGCACCGGAGAACATGATGTTCTGGCCACGCTA
B1: binds [4].

B2: ARE/Scr (ARE43) (dsDNA)
DNA 1: TACCTAGCGTGGCCAGAACATCATGTTCTCCGGTGCGATCCAG
DNA 2: CTGGATCGCACCGGAGAACATGATGTTCTGGCCACGCTAGGTA
B2: binds [5].
